Kd data for five molecules are collected here from PMC6662822, “Rational drug-design approach supported with thermodynamic studies — a peptide leader for the efficient bi-substrate inhibitor of protein kinase CK2” (Scientific Reports, 2019).

Where no end group is shown, it is not given here.

Conditions in all cases: both partners purified
The target of assay [1] is T1, catalytic subunit of human protein kinase CK2 (human, UniProt P68400 1-391, NT-647 dye (NanoTemper Protein Labeling Kit RED), in the MST experiments only).
T1 construct: catalytic subunit (alpha) of human protein kinase CK2; The His tag is named only for the pull-down (immobilised on cobalt resin); also called hCK2α; CK2α
T1 sequence (P68400 whole entry): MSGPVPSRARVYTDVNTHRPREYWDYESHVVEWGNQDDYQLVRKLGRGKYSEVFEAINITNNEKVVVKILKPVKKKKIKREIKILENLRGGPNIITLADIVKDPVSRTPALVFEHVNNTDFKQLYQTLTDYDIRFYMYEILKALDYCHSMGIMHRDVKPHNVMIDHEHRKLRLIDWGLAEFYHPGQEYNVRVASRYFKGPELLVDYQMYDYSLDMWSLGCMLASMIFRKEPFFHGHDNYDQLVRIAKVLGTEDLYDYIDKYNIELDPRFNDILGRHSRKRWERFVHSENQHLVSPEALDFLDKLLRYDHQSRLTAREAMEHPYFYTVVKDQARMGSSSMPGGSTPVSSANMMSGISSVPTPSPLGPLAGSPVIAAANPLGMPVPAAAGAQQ
The assay can be described thus: other fluorescence titration; nanoDSF (Prometheus NT.48): 350 nm/330 nm fluorescence ratio at 25 °C (native protein) against peptide concentration; 2.5 μM hCK2α, peptide 300 nM-10 mM, 25 mM Tris-HCl pH 7, 0.5 M NaCl; single binding site model.

The target in assay [2] is T1, catalytic subunit of human protein …. The assay can be described thus: MST; as a6, labelled hCK2α in the presence of TBBt (hCK2α/TBBt complex).
The target is the same in assay [3]. The assay can be described thus: other fluorescence titration; nanoDSF as a3, but data at 75 °C: unfolded form of hCK2α. A general note: DSF heats the sample and reads unfolding from a dye or from intrinsic fluorescence.
For assay [4] the target is unchanged. The experiment in a line: other fluorescence titration; nanoDSF as a3 (25 °C), hCK2α in the presence of TBBt (hCK2α/TBBt complex).
Assay [5] has the same target. The experiment in a line: MST; hCK2α labelled with NT-647 dye, 50 nM; ligand 100 nM-10 mM; thermophoresis with temperature jump; global fit of three independent pseudo-titrations.

B1: EETEEE-NH2 (peptide)
peptide: EETEEE-NH2
notes: source: synthetic peptide (solid-phase synthesis, purified by HPLC); in the pull-down as a member of the synthetic library
Usually Kd stands for the free concentration of one partner at which half of the binding sites on the other are occupied at equilibrium, for simple one-to-one binding. As for B1, the dissociation constant (Kd) in assay [1] is 960 ± 30 µM.

B2: EESEEE-NH2 (peptide)
peptide: EESEEE-NH2
notes: as for B1
B2: the dissociation constant (Kd) in assay [1] worked out at 1580 ± 60 µM.

B3: KETEEE-NH2 (peptide)
peptide: KETEEE-NH2
notes: as for B1
On to B3, for which, in assay [1], the equilibrium dissociation constant (Kd) came to 950 ± 50 µM.

B4: KESEEE-NH2 (peptide)
peptide: KESEEE-NH2
notes: source: synthetic peptide (solid-phase synthesis, purified by HPLC)
As to B4, the Kd in assay [2] is 360 ± 230 µM; in assay [3] it was roughly 1000 µM; in assay [4] it was 450 ± 20 µM; in assay [5], 390 ± 210 µM; in assay [1] it was 350 ± 20 µM.

B5: RRRDDDSDDD (peptide)
peptide: RRRDDDSDDD
notes: The supplier is named in the methods of the kinase assay; also called CK2 substrate peptide; source: bought: Biaffin GmbH & Co KG
In the case of B5, in assay [5], binding was characterised by a dissociation constant (Kd) of 2100 ± 700 µM.
